# According to US20240368275A1 (ELPIS BIOPHARMACEUTICALS, published 2024):
# Like-named read-outs stand apart in the source and are kept apart here.
# T1: human Nectin4-HIS tagged recombinant protein (human, UniProt Q96NY8 32-349)
# T1 construct: also called hNectin4-HIS; Nectin4 HIS tagged protein; not shown: HIS tag
# T1 sequence (looked up): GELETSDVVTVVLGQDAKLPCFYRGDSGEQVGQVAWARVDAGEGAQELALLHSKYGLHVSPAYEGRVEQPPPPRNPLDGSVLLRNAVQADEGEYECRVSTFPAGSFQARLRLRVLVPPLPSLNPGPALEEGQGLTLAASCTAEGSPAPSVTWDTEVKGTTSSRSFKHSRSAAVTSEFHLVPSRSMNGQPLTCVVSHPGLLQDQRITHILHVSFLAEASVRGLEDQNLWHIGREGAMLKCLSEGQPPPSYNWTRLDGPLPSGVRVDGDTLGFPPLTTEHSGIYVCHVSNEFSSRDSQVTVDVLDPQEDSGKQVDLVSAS
# T2: Nectin4 on Nectin4 positive cancer cell lines (T47D, HT1376, HCC1500, HT-29) (human, UniProt Q96NY8 32-510)
# T2 sequence (looked up): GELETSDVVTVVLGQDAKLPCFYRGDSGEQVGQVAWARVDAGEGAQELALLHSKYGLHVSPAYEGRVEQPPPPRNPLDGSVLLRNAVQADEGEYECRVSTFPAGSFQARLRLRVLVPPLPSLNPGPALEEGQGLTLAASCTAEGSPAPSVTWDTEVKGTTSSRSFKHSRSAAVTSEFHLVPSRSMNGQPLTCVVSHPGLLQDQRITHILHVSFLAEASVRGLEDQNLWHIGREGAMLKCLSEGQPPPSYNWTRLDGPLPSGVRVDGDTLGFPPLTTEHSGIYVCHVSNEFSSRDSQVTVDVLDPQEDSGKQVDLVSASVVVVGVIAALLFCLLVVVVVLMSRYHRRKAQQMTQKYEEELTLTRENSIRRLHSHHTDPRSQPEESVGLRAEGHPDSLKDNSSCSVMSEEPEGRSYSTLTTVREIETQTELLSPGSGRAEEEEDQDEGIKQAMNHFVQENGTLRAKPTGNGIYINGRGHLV
# T3: full-length human Nectin4 with C-terminal flag and Myc tags on CHO cells (human, UniProt Q96NY8 32-510)
# T3 construct: whole, on cells; also called Nectin4/CHO; CHO/Nectin4; not shown: C-terminal flag and Myc tags of pCMV6-Entry vector
# T3 sequence (looked up): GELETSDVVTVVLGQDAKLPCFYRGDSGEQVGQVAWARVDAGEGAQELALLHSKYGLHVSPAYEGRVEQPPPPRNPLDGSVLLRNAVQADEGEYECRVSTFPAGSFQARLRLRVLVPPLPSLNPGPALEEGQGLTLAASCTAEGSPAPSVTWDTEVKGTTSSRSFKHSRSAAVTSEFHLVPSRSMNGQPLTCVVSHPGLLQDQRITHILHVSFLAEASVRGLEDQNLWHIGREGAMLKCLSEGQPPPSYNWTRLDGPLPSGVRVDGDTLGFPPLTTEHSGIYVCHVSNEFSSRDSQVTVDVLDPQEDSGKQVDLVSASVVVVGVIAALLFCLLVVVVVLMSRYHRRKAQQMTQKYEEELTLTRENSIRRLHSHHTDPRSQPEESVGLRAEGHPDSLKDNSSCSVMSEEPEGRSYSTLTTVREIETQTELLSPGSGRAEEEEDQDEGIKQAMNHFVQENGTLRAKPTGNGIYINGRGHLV
# Legend:
# [1] = target: T4, human CD3E HIS tagged protein (human, UniProt P07766 23-126); test: SPR Biacore T200, bispecific captured on Protein A chip, CD3E-HIS injected
# T4 construct: not shown: HIS tag
# Description: (§1) The assay was run with Biacore T200 control software version 2.0. For each cycle, 1 ug/mL of anti-hNectin4/CD3 antibody was captured for 60 seconds at flow rate of 10 ul/min on flow cell 2 in 1×HBSP buffer on Protein A sensor chip. 2-fold serial diluted CD3E-HIS or hNectin4-HIS tagged protein was injected onto both reference flow cell 1 and anti-Nectin4/CD3 bispecific captured flow cell 2 for 150 seconds at flow rate of 30 ul/mins followed by wash for 300 seconds. The flow cells were then regenerated with Glycine pH2 for 60 seconds at flow rate of 30 ul/mins. 8 concentration points from 100 nM-0 nM (CD3E-HIS) or 300 nM-0 nM (Nectin4-HIS) was assayed per anti-Nectin4 IgG in a 96 well plate. The kinetics of Anti-Nectin4/CD3 bispecific binding to CD3E and Nectin4 proteins was analyzed with Biacore T200 evaluation software version 3.0. The specific binding response unit was derived from subtraction of binding to reference flow cell 1 from antibody captured flow cell 2. Table 10 below listed the kinetics results. ND means not determined. NA means data not available.
# [2] = target: T1, human Nectin4-HIS tagged recombinant …; test: SPR Biacore T200, bispecific captured on Protein A chip, hNectin4-HIS injected
# Description: as §1
# [3] = target: T4, human CD3E HIS tagged protein; test: ELISA, coated human CD3E HIS tagged protein, bispecific titrated, anti-Human HRP
# Description: (§2) An ELISA assay was developed to determine the EC₅₀ of anti-Nectin4/CD3 bispecific antibodies. Briefly, 384 well plate was immobilized with human CD3E or Nectin4 HIS tagged protein at final concentration of 2 ug/mL in 1×PBS in total volume of 25 uL per well. The plate was incubated overnight at 4° C. followed by blocking with 80 uL of superblock per well for 1 hour. Purified anti-Nectin4/CD3 was 3-fold serial titrated from 100 nM. 25 uL was added to human Nectin4/CD3 immobilized wells and incubated for 1 hour with shaking. The CD3E or Nectin4 binding was detected by adding 25 uL of anti-Human HRP diluted at 1:10000 in 1×PBST. In between each step, the plate was washed 3 times with […] in a plate washer. The plate was then developed with 20 ul of TMB substrate for 5 mins and stopped by adding 20 ul of 2N sulfuric acid. The plate was read at OD450 nm Biotek plate reader and then plotted in Prism 8.1 software to calculate EC50.
# CD3 on Jurkat cells [4] = target: T5, CD3 on Jurkat cells (UniProt P07766 23-207, limits assumed); test: flow cytometry on Jurkat cells
# T5 construct: whole, on cells; the whole CD3/TCR complex stands on the cells; also called Jurkat CD3
# Description: (§3) Jurkat cells were plated at 100,000 cells/well in a 96-well plate with 50 μL of full media. Anti-Nectin4/CD3 antibodies were 3-fold serial titrated from 20 nM. 50 μL was added to the cells and incubated for 1 hours at room temperature with shaking. Samples were washed one time with flow buffer. […] Samples were washed once with flow buffer. Samples were stained with 100 uL Zombie Fixable Viability Dyes at 1:800 dilution per well and incubated in dark at room temperature for 30 mins. Samples were spun down at 1300 rpm for 5 minutes and washed once with 200 uL flow buffer. Reconstituted samples in 200 uL of flow buffer and read on Attune NxT cytometer. EC50 values for CD3 binding were calculated using Prism 8.1 software.
# CD3 on Jurkat cells [5] = target: T5, CD3 on Jurkat cells; test: cell-based or functional assay
# [6] = target: T2, Nectin4 on Nectin4 positive cancer cell …; test: cell-based or functional assay
# [7] = target: T2, Nectin4 on Nectin4 positive cancer cell …; test: flow cytometry on T47D cells
# [8] = target: T2, Nectin4 on Nectin4 positive cancer cell …; test: cell-based or functional assay; remark: listed apart in the source
# CD3 on Jurkat cells [9] = target: T5, CD3 on Jurkat cells; test: flow cytometry on Jurkat cells; remark: listed apart in the source
# Description: as §3
# Similar methods of above mentioned were used to measure the binding activities of anti-Nectin4/CD3/IL-2 complexes to CHO/Nectin4 and Jurkat cells, respectively.
# [10] = target: T2, Nectin4 on Nectin4 positive cancer cell …; test: flow cytometry on HT1376 cells
# [11] = target: T3, full-length human Nectin4 with …; test: flow cytometry on CHO/Nectin4 cells
# Description: Nectin4/CHO Nectin4 cells were plated at 100,000 cells/well in a 96-well plate in 50 μL of full media. Cells were rested 1 hour at 37° C. Anti-Nectin4/CD3 was 3-fold serial titrated from 50 nM. 50 μL was added to the cells and incubated for 1 hours with shaking. Samples were washed one time with flow buffer. […] Samples were washed once with flow buffer. Samples were stained with 100 uL Zombie Fixable Viability Dyes (1:800 dilution) per well and incubated in dark at room temperature for 30 mins. Samples were spun down at 1200 rpm for 5 minutes and washed once with 200 uL flow buffer. Reconstituted samples in 200 uL of flow buffer and read on Attune NxT cytometer. EC₅₀ values for Nectin4 Binding were determined using Prism software.
# [12] = target: T1, human Nectin4-HIS tagged recombinant …; test: ELISA, coated Nectin4 HIS tagged protein, bispecific titrated, anti-Human HRP
# Description: as §2
# T4 sequence (P07766 23-126 limits assumed): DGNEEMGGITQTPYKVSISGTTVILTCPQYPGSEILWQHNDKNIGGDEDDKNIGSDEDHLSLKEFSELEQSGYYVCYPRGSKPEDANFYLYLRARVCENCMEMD
# T5 sequence (P07766 23-207 limits assumed): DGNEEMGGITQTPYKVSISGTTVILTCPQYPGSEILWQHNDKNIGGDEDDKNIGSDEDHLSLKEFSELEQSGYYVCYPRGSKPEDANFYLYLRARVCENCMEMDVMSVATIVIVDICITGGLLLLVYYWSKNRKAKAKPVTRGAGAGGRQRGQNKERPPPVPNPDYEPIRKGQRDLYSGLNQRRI
binder,measurement,setting,value
"EP458/EP378/EP289 anti-Nectin4/CD3 bispecific antibody (bispecific antibody, Bivalent for Nectin4: B09 heavy chain with sp34 scFv between CH1 and hinge, hole (EP458); B09 heavy chain knob (EP378); light chain EP289 pairs with both; also called EP458/378/289) heavy 1: EVQLVQSGAEVKKPGASVKVSCKASGYTFTGYYMHWVRQAPGQGLEWMGRINPNSGGTNYAQKFQGRVTMTRDTSISTAYMELSGLRSDDTAVYFCARVTYNIGWYIDYWGQGTLVTVSSASTKGPSVFPLAPSSKSTSGGTAALGCLVKDYFPEPVTVSWNSGALTSGVHTFPAVLQSSGLYSLSSVVTVPSSSLGTQTYICNVNHKPSNTKVDKKVEPKSCDGGGGSGGGGSEVQLVESGGGLVQPGGSLRLSCAASGFTFSTYAMNWVRQAPGKGLEWVGRIRSKYNNYATYYADSVKGRFTISRDDSKNTLYLQMNSLRAEDTAVYYCVRHGNFGDSYVSWFAYWGQGTLVTVSSGGGGSGGGGSGGGGSGGGGSQAVVTQEPSLTVSPGGTVTLTCGSSTGAVTTSNYANWVQQKPGKSPRGLIGGTNKRAPGVPARFSGSLLGGKAALTISGAQPEDEADYYCALWYSNHWVFGGGTKLTVLEPKSCDKTHTCPPCPAPEAAGGPSVFLFPPKPKDTLMISRTPEVTCVVVDVSHEDPEVKFNWYVDGVEVHNAKTKPREEQYNSTYRVVSVLTVLHQDWLNGKEYKCKVSNKALGAPIEKTISKAKGQPREPQVCTLPPSRDELTKNQVSLSCAVKGFYPSDIAVEWESNGQPENNYKTTPPVLDSDGSFKLVSKLTVDKSRWQQGNVFSCSVMHEALHNHYTQKSLSLSPGK heavy 2: not shown light: QAVVTQPPSVSVAPGKTATITCGGNNIGSKGVHWYQQKPGQAPVLVIYYDTDRPSGIPERLSGSNSGNTATLTISRVEAGDEADYYCQVWDSSSDHPVFGGGTKLTVLGQPKANPTVTLFPPSSEELQANKATLVCLISDFYPGAVTVAWKADGSPVKAGVETTKPSKQSNNKYAASSYLSLTPEQWKSHRSYSCQVTHEGSTVEKTVAPTECS",Kd,[1],3.26 nM
same,koff,[1],0.000739 s⁻¹
same,kon,[1],227000 M⁻¹ s⁻¹
same,Kd,[2],3.67 nM
same,koff,[2],0.000472 s⁻¹
same,kon,[2],129000 M⁻¹ s⁻¹
same,EC50,[3],0.011 nM
same,EC50,CD3 on Jurkat cells [4],4.7 nM
same,NFAT reporter EC50,CD3 on Jurkat cells [5],0.4 pM
same,EC50 Values in CTL Assay Against T47D Cancer Cells (PBMC),[6],4.7 pM
same,EC50 Values in CTL Assay Against T47D Cancer Cells (T cell),[6],6.4 pM
same,EC50,[7],0.044 nM
same,EC50 Values in CTL Assay Against PBMC,[8],1.4 pM
same,EC50,CD3 on Jurkat cells [9],4.37 nM
same,EC50,[10],0.14 nM
same,EC50,[11],0.146 nM
same,EC50,[12],0.21 nM
